As a reminder, the Kd is the equilibrium constant for the complex coming apart.

The target in assay [1] is PD-L1 on cells (UniProt Q9NZQ7). Kind of assay: flow cytometry, T24 R-WT cells incubated first with Atezolizumab Fab (50 nM); negative control [Cont.]. Background: A flow cytometer gives signals particle by particle.
For another assay, the target named is EGFR (UniProt P00533). Briefly: Fab KD, method not stated.
Assay [2] addresses PD-L1 on cells (UniProt Q9NZQ7). Briefly: flow cytometry, T24 R-WT cells incubated first with Atezolizumab Fab (50 nM); Isotype Control-647 gives 480 [Cont.].

Sequence of UniProt Q9NZQ7 (Q9NZQ7 19-290 limits assumed): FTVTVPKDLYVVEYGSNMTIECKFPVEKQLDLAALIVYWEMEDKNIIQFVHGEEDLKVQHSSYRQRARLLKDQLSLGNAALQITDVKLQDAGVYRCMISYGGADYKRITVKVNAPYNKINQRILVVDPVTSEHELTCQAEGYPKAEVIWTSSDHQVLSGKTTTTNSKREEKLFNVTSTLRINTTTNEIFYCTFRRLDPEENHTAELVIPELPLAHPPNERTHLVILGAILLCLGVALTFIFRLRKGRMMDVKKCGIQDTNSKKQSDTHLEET

Consider Isotype Control-647 (antibody), for which, in the assay with PD-L1 on cells [1], the Median (APC) is 480.

The molecule Necitumumab Fab came in with a Kd with EGFR of 6.1 nM.

Molecule PD-L1 (D8T4X)-647 antibody gave a Median (APC) with PD-L1 on cells [2] of 8120.

B1: Matuzumab Fab (Fab, INN chains, looked up, V domains shown)
VH: QVQLVQSGAEVKKPGASVKVSCKASGYTFTSHWMHWVRQAPGQGLEWIGEFNPSNGRTNYNEKFKSKATMTVDTSTNTAYMELSSLRSEDTAVYYCASRDYDYDGRYFDYWGQGTLVTVSS
VL: DIQMTQSPSSLSASVGDRVTITCSASSSVTYMYWYQQKPGKAPKLLIYDTSNLASGVPSRFSGSGSGTDYTFTISSLQPEDIATYYCQQWSSHIFTFGQGTKVEIK
modifications: Fab
B1 returned a Kd with EGFR of 113 nM. That is a sub-micromolar value.

(Values after patent publication US20250250358A1.)
